One test addresses human IgG4 (Natalizumab). Put plainly: SPR, Biacore 3000, 25 C, Langmuir 1:1 model.
The next test concerns the target human IgG2 (Panitumomab). In words: SPR, Biacore 3000, 25 C, Langmuir 1:1 model.

With “Wt C-domain (wild-type Protein A domain C) (from UniProt P38507 270-327)”, the figures for the Kd in the test with human IgG4 (Natalizumab) and with human IgG2 (Panitumomab) were 8 nM and 129 nM, respectively.

The values above are taken from patent US20250051400A1.
